Assay results published in patent US20240376180A1 (DEUTSCHES ZENTRUM FUR NEURODEGENERATIVE ERKRANKUNGEN E V …, published 2024).
Where a chain is given by its changes, count along the chain named.

B1: HL CV07-250 (antibody, V domains shown)
VH: QVQLVQSEAEVKEPGASVEVSCKASGYNFTNFAISWVRQAPGQGLEWMGWISGYNGDTNSAQKFLGRVTMTTDTSTTTAYMELRSLRSDDTAVYYCAGSDNYGFPYNGMDVWGQGTTVTVSS
VL: QSALTQPPSASGSPGQSVTISCTGTSSDLGAYHFVTWYQHYPGKAPKVMIYGVRKRPSGVPDRFSGSKSGNTASLTVSGLQDEDEADYYCSSYAGNNDFVFGGGTKLTVLS
B2: HK CV38-139 (antibody, V domains shown)
VH: EVQLVESGGGLVQPGGSLRLSCAASGFTVSSNYMSWVRQAPGKGLEWVSVFYSGGSTFYADSVKGRFTISRDNSKNTLYLQMNSLRAEDTAVYYCARGHYDLFDYWGQGTLVTVSS
VL: DIQLTQSPSFLSASVGDRVTITCRASQGISSYLAWYQQKPGKAPKLLIYAASTLQSGVPSRFSGSGSGTEFTLTISSLQPEDFATYYCQQLNSYPPGTFGPGTKVDIKR
B3: HK CV38-113 (antibody, V domains shown)
VH: EVQLVESGGGLVQPGGSLRLSCAASGFTVSSNYMSWVRQAPGKGLEWVSVIYSGGSTYYADSVKGRFTISRHNSKNTLYLQMNSLRAEDTAVYFCARGGRLADAAGDYWGQGTLVTVSS
VL: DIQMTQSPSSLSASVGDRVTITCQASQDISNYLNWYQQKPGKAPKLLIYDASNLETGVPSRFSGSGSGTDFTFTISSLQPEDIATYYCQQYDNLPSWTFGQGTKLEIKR
B4: HK CV07-287 (antibody, V domains shown)
VH: QVQLVQSGPEVKKPGTSVKVSCKASGFTFTSSAMQWVRQARGQRLEWIGWIVVGSGNTNYAQKFQERVTITRDMSTSTAYMELSSLRSEDTAVYYCAAPYCSSTNCYDAFDIWGQGTMVTVSS
VL: not shown
B5: HK CVX2-106 (antibody, V domains shown)
VH: QVQLVQSGAEVKKPGSSVKVSCKASGGTFSSYAISWVRQAPGQGLEWMGGIIPIFGTANYAQKFQGRVTITADESTSTAYMELSSLRSEDTAVYYCATRKETTVTTSLVYGMDVWGQGTTVTVSS
VL: not shown
B6: HL CV07-222 (antibody, V domains shown)
VH: QVQLVQSGAEVKKPGASVKVSCKASGYTFTDYYVHWVRQAPGQGLEWMGWINPISGGTNYAQKFQGRVTMTRDTSISTAYMELSRLRSDDTAVYYCARGPYYYDSSGSLGAFDIWGQGTMVTVSS
VL: QSALTQPASVSGSPGQSITISCTGTSSDVGSYNLVSWYQQHPGKAPKLMIYEGSKRPSGVSNRFSGSKSGNTASLTISGLQAEDEAHYYCCSYAGGSTSYVFGTGTKVTVLG
B7: HL CV07-255 (antibody, V domains shown)
VH: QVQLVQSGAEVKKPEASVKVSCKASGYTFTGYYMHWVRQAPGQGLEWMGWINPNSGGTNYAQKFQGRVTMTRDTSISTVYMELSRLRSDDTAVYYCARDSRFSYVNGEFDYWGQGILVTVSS
VL: QSALTQPASVSGSPGQSITISCTRTSSDVESYNLVSWYQQHPGKAPKLMIYEVSKRPSGISNRFSGSKSGNTASLTISGLQAEDEADYYCCSYAGHSTWVFGGGTELTVLG
B8: HL CV07-262 (antibody, V domains shown)
VH: QVQLVQSGAEVKKPGASVKVSCKASGYTFTGYYMHWVRQAPGQGLEWMGWINPNSGGTNYAQTFQGRVTMTRDTSITTTYMELSRLRSDDTAVYYCARVGWYDFGTPGDYYYYYGMDVWGQGTTVTVSS
VL: B7 VL with R24G, E30G, V53G, I60V, Y89F, H96T, W99F, G103T, E106K, L107V
B9: HK CVX1-126 (antibody, V domains shown)
VH: EVQLVESGGGLVQPGGSLRLSCAASGLTVSSNYMSWVRQAPGKGLEWVSVIYSGGSTYYADSVKGRFTISRHNSKNTLYLQMNSVRAEDTAVYYCARDLSEGGMDVWGQGTTVTVSS
VL: DIQMTQSPSSVSASVGDRVTITCRASQGISSWLAWYQQKPGKAPKLLIYAASTLQSGVPSRFSGSGSGTDFTLTISSLQPEDFATYYCQQANGFPPLFGGGTKVEIKR
B10: HL CV07-270 (antibody, V domains shown)
VH: QVQLVESGGGLVKPGGSLRLSCAASGFTFSDYYMTWIRQAPGKGLEWVSYISSSGSTIYYADSVKGRFTISRDNAKNSLYLQMNSLRAEDTAVYYCARARGSSGWYRIGTRWGNWFDPWGQGTLVTVSS
VL: QSALTQPASVSGSPGQSITISCTGTSSDVGGYNYVSWYQQHPGKAPKLMIYEVSNRPSGVSNRFSGSKSGNTASLTISGLQAEDEADYYCSSYTSSSNVVFGGGTMLTVLG
B11: HL CV07-283 (antibody, V domains shown)
VH: QVQLVQSGAEVKKPGASAKVSCKASGYTFTGYYIHWVRQAPGQGLEWMGLINPISGGTNYAQKFQDRVTMTRDTSISTAYMELSRLRSDDTAVYYCVRGPFYYDSSGPLGGMDVWGQGTTVTVSS
VL: B10 VL with S27G, N98T, V99Y, G103T, M106K, L107V
B12: HK CV07-209 (antibody, V domains shown)
VH: QVQLVESGGGLVKPGGSLRLSCAASGFTFSDYYMSWIRQAPGKGLEWVSYISSSVSTIYYADSVKGRFTISRDNAKNSLYLQMNSLRAEDTAVYYCARDGVIPPRFDYWGQGTLVTVSS
VL: not shown
B13: HK CV38-221 (antibody, V domains shown)
VH: EVQLVESGGGLVQPGGSLRLSCAASGITVSSNYMIWVRQAPGKGLEWVSVIYSGGSTYYADSVKGRFTISRDNSKNTLYLQMNSLRAEDTAVYYCARGFGDYYFDYWGQGTLVTVSS
VL: EIVLTQSPGTLSLSPGERATLSCRASQSVSSSYFAWYQQKPGQAPRLLIYGASSRATGIPDRFSGSGSGTDFTLTISRLEPEDFAVYYCQQLYTFGQGTKLEIKR
B14: HL CV07-315 (antibody, V domains shown)
VH: EVQLVESGGGLVQPGRSLRLSCAASGFTFDDYAMHWVRQAPGKGLEWVSGISWNSGSIGYADSVKGRFTISRDNAKNSLYLQMNSLRAEDTALYYCAKDFLWDLHPPRYYGMDVWGQGTTVTVSS
VL: QSVLTRPPSVSAAPGQKVTISCSGSSSNIGNNYVSWYQQLPGTAPKLLIYENNKRPSGIPDRFSGSKSGTSATLGITGLQTGDEADYYCGTWDSSLNGVFGGGTKLTVLG

target: SARS-CoV-2 Spike RBD-Fc (SARS-CoV-2); test: ELISA, RBD-Fc captured via anti-rabbit IgG, concentration-dependent binding

Binder | EC50 [ng/mL]
B1 | 8.7
B2 | 8.9
B3 | 5.2
B4 | 5.9
B5 | 5.6
B6 | 5.5
B7 | 4.8
B8 | 12.1
B9 | 5.5
B10 | 14.2
B11 | 4
B12 | 4.1
B13 | 6.4
B14 | 7.2
